From US20230212304A1 (BIOSION, published 2023) come the findings set out here.

Read-outs that look alike come from different tables or passages of the source.

In assay [1] the target is T1, recombinant human CTLA4 protein with human IgG1 Fc tag at the C-terminus (Acro biosystems, Cat#CT4-H5255) (human, UniProt P16410 37-162).
T1 construct: bought protein; also called human CTLA4-Fc; CTLA4-Fc; not shown: human IgG1 Fc tag at the C-terminus
T1 sequence (looked up): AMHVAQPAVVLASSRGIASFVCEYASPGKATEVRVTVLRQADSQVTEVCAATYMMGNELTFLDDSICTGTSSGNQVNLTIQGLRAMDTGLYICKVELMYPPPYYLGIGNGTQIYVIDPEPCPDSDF
Nature of the assay: capture ELISA (plate coated with goat anti-human IgG F(ab')2 per paragraph 181), biotin human CTLA4-Fc, streptavidin-HRP, OD(450-630). How it is done: Plates were washed once with wash buffer (PBS+0.05% v/v Tween-20, PBST) and then blocked with 200 µl/well blocking buffer (PBST with 5% w/v non-fatty milk) for 2 hours at 37° C. […] After a final wash, plates were incubated with 100 µl/well substrate TMB (Innoreagents, Cat#TMB-S-002). The reaction was stopped in 15 minutes at room temperature with 50 µl/well 1M H₂SO₄, and the absorbance of the each well was read on a microplate reader using dual wavelength mode with 450 nm for TMB and 630 nm as the reference wavelength, then the OD (450-630) values were plotted against antibody concentration. Data was analyzed using Graphpad Prism software and EC₅₀ values were reported.
(§1) In the capture ELISA assay, the 96-well micro plates were coated with 2 µg/ml goat anti-human IgG (AffiniPure Goat Anti-Human IgG, F(ab′)₂ fragment specific, Jackson Immunoresearch, Cat#109-005-097) instead of the goat anti-mouse IgG F(ab′)₂ fragment, 100 µl/well.
(In general: In an ELISA, binding on a coated surface is turned into a signal by an enzyme label.)

For assay [2], the target named is T1, recombinant human CTLA4 protein with …. The assay can be described thus: cell based blocking FACS: antibody pre-mixed with human CTLA4-Fc (1 ug/mL), added to Daudi cells; blocked ligands: cell surface CD80/CD86. How it is done: (§2) Daudi cells were harvested from cell culture flasks at the log phase, washed twice and re-suspended in PBS containing 2% v/v Fetal Bovine Serum (FACS buffer). […] Cells were washed twice and re-suspended in FACS buffer. Fluorescence was measured using a Becton Dickinson FACS Canto II-HTS equipment. Data was analyzed using Graphpad Prism software and IC₅₀ values were reported.

For assay [3] the target is unchanged. The assay can be described thus: competitive ELISA: antibody pre-mixed with biotin human CTLA4-Fc (65 ng/ml), added to plate coated with the benchmark; competitor: coated Yervoy.
Assay [4] has the same target. The assay can be described thus: competitive ELISA: antibody pre-mixed with biotin human CTLA4-Fc, added to plate coated with the benchmark; competitor: coated Yervoy. Here is the method:
Plates were washed once with wash buffer, blocked with 200 µl PBST with 5% w/v non-fatty milk, incubated for 2 hours at 37° C., and washed 4 times.
After incubation at 37° C. for 40 minutes, plates were washed 4 times again using wash buffer. Then the plates were added and incubated with 100 µl/well streptavidin conjugated HRP (1:10000 dilution in PBST, Jackson Immuno Research, Cat#016-030-084, 100 µl/well) for 40 minutes at 37° C. Plates were finally washed using wash buffer. Finally, TMB was added and the reaction was stopped using 1M H₂SO₄, and the absorbance of the each well was read on a microplate reader using dual wavelength mode with 450 nm for TMB and 630 nm as the reference wavelength, then the OD (450-630) values were plotted against antibody concentration. Data was analyzed using Graphpad Prism software and IC₅₀ values were reported.
as §1

Assay [5] shares this target. Nature of the assay: cell-based or functional assay.
Assay [6] shares this target. The assay can be described thus: cell-based or functional assay. This is another data set of the same source.
Assay [7] has as its target T2, recombinant human CTLA4-his protein (Acro biosystems, Cat#CT4-H5229) (human, UniProt P16410 37-162).
T2 construct: bought recombinant protein; not shown: his tag
T2 sequence (looked up): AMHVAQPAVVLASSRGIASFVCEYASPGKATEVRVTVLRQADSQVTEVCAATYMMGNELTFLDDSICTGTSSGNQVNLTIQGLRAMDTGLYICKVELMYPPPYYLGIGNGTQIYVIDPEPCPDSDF
Nature of the assay: SPR, Biacore T200; antibody captured, CTLA4-his as analyte. Here is the method: (§3) Un-reacted moieties on the biosensor surface were blocked with ethanolamine. […] The antigen-antibody association kinetics was followed for 2 minutes and the dissociation kinetics was followed for 10 minutes. The association and dissociation curves were fit to a 1:1 Langmuir binding model using BIAcore evaluation software.
(SPR reads the build-up and loss of mass on a sensor chip optically.)

Assay [8] has as its target T3, cynomolgus monkey CTLA4-his protein (Acro biosystems, Cat#CT4-C5227) (cynomolgus monkey, UniProt G7PL88 36-161).
T3 construct: bought recombinant protein; also called Cynomolgus CTLA4-his; not shown: his tag
T3 sequence: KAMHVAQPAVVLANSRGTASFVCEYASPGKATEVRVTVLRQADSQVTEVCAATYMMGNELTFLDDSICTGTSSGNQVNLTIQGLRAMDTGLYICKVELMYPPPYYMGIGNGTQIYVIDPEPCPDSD
The assay is described as above. Here is the method:
as §3

For assay [9], the target named is T1, recombinant human CTLA4 protein with …. The assay can be described thus: cell based blocking FACS: antibody pre-mixed with human CTLA4-Fc, added to Daudi cells; blocked ligands: cell surface CD80/CD86. How it is done:
as §2

Assay [10] has the same target. Nature of the assay: capture ELISA: antibody captured on coated plate (anti-human IgG Fc for the chimeric antibodies), biotin human CTLA4-Fc, streptavidin-HRP, OD(450-630).
The target is the same in assay [11]. The assay can be described thus: cell based blocking FACS: antibody pre-mixed with human CTLA4-Fc, added to Daudi cells; blocked ligands: cell surface CD80/CD86. This is another data set of the same source.
Assay [12] has the same target. The assay can be described thus: capture ELISA: antibody captured on anti-mouse IgG F(ab')2 coated plate, biotin human CTLA4-Fc 26 ng/ml, streptavidin-HRP, OD(450-630).
The target of assay [13] is T2, recombinant human CTLA4-his protein …. Nature of the assay: SPR, Biacore; antibody captured on anti-human IgG CM5 chip, CTLA4-his as analyte. How it is done: (§4) Un-reacted moieties on the biosensor surface were blocked with ethanolamine. […] The antigen-antibody association kinetics was followed for 2 minutes and the dissociation kinetics was followed for 10 minutes. The association and dissociation curves were fit to a 1:1 Langmuir binding model using BIAcore evaluation software. […]

The target in assay [14] is T3, cynomolgus monkey CTLA4-his protein …. The description is as above. Here is the method: as §4
The target in assay [15] is T2, recombinant human CTLA4-his protein …. Nature of the assay: BLI, Octet; antibody at 5 ug/ml on AHC sensor, CTLA4-his as analyte. Here is the method: (§5) Briefly, AHC biosensors (anti-human IgG Fc capture, from ForteBio) were presoaked with 10 mM glycine (pH 1.5) for 3 seconds, and then dipped in a well with running buffer (0.5% w/v BSA in PBST) for 3 seconds, the soaking and dipping steps were repeated for three times. […] A new baseline was run for 180 seconds in another well with running buffer. […] Finally, sensors were presoaked with 10 mM glycine (pH 1.5) for 3 seconds, and then were dipped in a well with running buffer for 3 seconds, the soaking and dipping steps repeated for three times. The association and dissociation curves were fit to a 1:1 Langmuir binding model using ForteBio Data Analysis 8.1.
A general note: Biolayer interferometry detects binding as a change in optical thickness at a sensor tip.

The target is the same in assay [16]. The assay can be described thus: BLI, Octet RED96; antibody on AHC sensor, CTLA4-his as analyte. Here is the method: as §5
Assay [17] has the same target. The assay can be described thus: BLI, Octet; antibody from cell supernatant on AHC sensor, CTLA4-his as analyte. How it is done:
as §5

B1: mouse anti-CTLA4 monoclonal antibody D1D5 (antibody, V domains shown)
VH: EVKLVESGGGLVKPGGSLKLSCAASGFTFSDYGMAWVRQAPGKGPEWVAFISNLAYSVYYADTETGRFTISREDAKNTLYLEMSSLRSEDTAMYYCARSGLPYAMDYWGQGTSVTVSS
VL: DIQMTQTTSSLSASLGDRVTISCRASQDISNYLNWYQQKPDGTVKLLIYYISRLHSGVPSRFSGSGSGTDFSLTISNLEQEDIATYFCQQGRMLPWTFGGGTRLEIK
notes: mouse mAb purified from hybridoma supernatant
A word on the EC50: it is the concentration needed to bring the measured effect to its halfway point. Usually IC50 stands for the concentration at which inhibition is half-maximal. The Kd is the constant that tells how readily two partners part at equilibrium. By koff is commonly meant a measure of how fast the partners let go of each other. As usually defined, the kon is the rate constant with which the complex forms. As to B1, the EC50 in assay [1] came to 0.778 nM; in assay [10] it was 0.632 nM; in assay [12], 0.103 nM. Moreover, the IC50 in assay [2] amounted to 4.77 nM; in [3], 0.646 nM; in assay [4] it was 5.75 nM; in [9], 5.82 nM; in assay [11], 9.67 nM. For the same molecule, the entries for the “EC50 of IL-2 release (GS-J1 T cells + GS-C1/CD80 cells + human CTLA4-Fc, IL-2 HTRF)” value (from here on “EC50 of IL-2 release”) in assay [5] and in [6] were 42.3 nM and 37.5 nM, respectively. Moreover, the Kd was 1.89 nM in assay [7] and 4.67 nM in [8]. Moreover, the koff in assay [7] is 0.000276 s⁻¹; in assay [8], 0.00047 s⁻¹. In addition, the kon in assay [7] came to 146000 M⁻¹ s⁻¹; in assay [8], 101000 M⁻¹ s⁻¹.

B2: chimeric D1D5 anti-CTLA4 antibody (antibody, human IgG4 S228P, kappa, V domains shown)
VH: EVKLVESGGGLVKPGGSLKLSCAASGFTFSDYGMAWVRQAPGKGPEWVAFISNLAYSVYYADTETGRFTISREDAKNTLYLEMSSLRSEDTAMYYCARSGLPYAMDYWGQGTSVTVSS
VL: DIQMTQTTSSLSASLGDRVTISCRASQDISNYLNWYQQKPDGTVKLLIYYISRLHSGVPSRFSGSGSGTDFSLTISNLEQEDIATYFCQQGRMLPWTFGGGTRLEIKR
notes: mouse variable domains on human IgG4/kappa, made in 293F cells
Consider B2, for which the EC50 in assay [1] worked out at 0.575 nM; in assay [10] it was 0.992 nM. Besides, the Kd in assay [13] was 1.93 nM; in assay [14], 0.968 nM; in [15] it was less than 0.001 nM; in [16], 5.32 nM. Further, the koff was 0.000404 s⁻¹ in assay [13], 0.000505 s⁻¹ in assay [14], less than 1e-07 s⁻¹ in assay [15] and 0.00166 s⁻¹ in assay [16]. Also, the kon in assay [13] is 209000 M⁻¹ s⁻¹; in assay [14] it was 521000 M⁻¹ s⁻¹; in assay [15] it was 132000 M⁻¹ s⁻¹; in [16] it was 312000 M⁻¹ s⁻¹. In addition, the IC50 in [4] stood at 0.785 nM; in assay [9] it was 6 nM; in assay [11], 12.6 nM. Further, in assay [5], the “EC50 of IL-2 release” value was determined as 82.1 nM.

B3: huD1D5-V9 (antibody, human IgG4 S228P, kappa, V domains shown)
VH: EVQLVESGGGLVKPGGSLRLSCAASGFTFSDYGMAWVRQAPGKGPEWVAFISNLAYSVYYADTETGRFTISRDDAKNSLYLQMNSLRAEDTAVYYCARSGLPYAMDYWGQGTTVTVSS
VL: DIQMTQSPSSLSASVGDRVTITCRASQDISNYLNWYQQKPGKVPKLLIYYISRLHSGVPSRFSGSGSGTDFTLTISSLQPEDVATYYCQQGRMLPWTFGGGTKVEIKR
notes: humanized IgG4/kappa; cell supernatant on Octet, purified antibody in Biacore, ELISA, FACS and the functional assay; also called hu CTLA4 D1D5-V9; huDID5-V9
B3: the EC50 in assay [1] amounted to 0.516 nM. The Kd in [13] stood at 3.02 nM; in assay [14] it was 2.13 nM; in assay [17] it was 4.37 nM. In addition, the koff in assay [13] is 0.000519 s⁻¹; in assay [14], 0.000576 s⁻¹; in assay [17], 0.000471 s⁻¹. For the same molecule, the kon is 172000 M⁻¹ s⁻¹ in [13], 271000 M⁻¹ s⁻¹ in assay [14] and 108000 M⁻¹ s⁻¹ in assay [17]. The IC50 was determined as 0.642 nM in [4] and 5.53 nM in assay [9]. In [5], the “EC50 of IL-2 release” value is 27.3 nM.
